Laboratory results taken from paper doi:10.1101/2020.02.13.946640 (bioRxiv, 2020).
Read-outs that look alike come from different tables or passages of the source.

B1: d subunit of Thermus thermophilus V/A-ATPase (natural protein, UniProt P74902 1-323, looked up)
chain: MADDFAYLNARVRVRRGTLLKESFFQEALDLSFADFLRLLSETVYGGELAGQGLPDVDRAVLRTQAKLVGDLPRLVTGEAREAVRLLLLRNDLHNLQALLRAKATGRPFEEVLLLPGTLREEVWRQAYEAQDPAGMAQVLAVPGHPLARALRAVLRETQDLARVEALLAKRFFEDVAKAAKGLDQPALRDYLALEVDAENLRTAFKLQGSGLAPDAFFLKGGRFVDRVRFARLMEGDYAVLDELSGTPFSGLSGVRDLKALERGLRCVLLKEAKKGVQDPLGVGLVLAYVKEREWEAVRLRLLARRAYFGLPRAQVEEEVVCP

Experiments:
Assay in all cases: cryo-EM structure
[1] = molecular target: c subunit of Thermus thermophilus V/A-ATPase, His3-tagged (Thermus thermophilus) (UniProt Q5SIT7)
[2] = molecular target: c subunit of Thermus thermophilus V/A-ATPase, His3-tagged (Thermus thermophilus) (UniProt Q5SIT7); remark: listed apart in the source
[3] = molecular target: T1, a subunit of Thermus thermophilus V/A-ATPase (Thermus thermophilus, UniProt Q5SIT6 1-652)
T1 sequence (looked up): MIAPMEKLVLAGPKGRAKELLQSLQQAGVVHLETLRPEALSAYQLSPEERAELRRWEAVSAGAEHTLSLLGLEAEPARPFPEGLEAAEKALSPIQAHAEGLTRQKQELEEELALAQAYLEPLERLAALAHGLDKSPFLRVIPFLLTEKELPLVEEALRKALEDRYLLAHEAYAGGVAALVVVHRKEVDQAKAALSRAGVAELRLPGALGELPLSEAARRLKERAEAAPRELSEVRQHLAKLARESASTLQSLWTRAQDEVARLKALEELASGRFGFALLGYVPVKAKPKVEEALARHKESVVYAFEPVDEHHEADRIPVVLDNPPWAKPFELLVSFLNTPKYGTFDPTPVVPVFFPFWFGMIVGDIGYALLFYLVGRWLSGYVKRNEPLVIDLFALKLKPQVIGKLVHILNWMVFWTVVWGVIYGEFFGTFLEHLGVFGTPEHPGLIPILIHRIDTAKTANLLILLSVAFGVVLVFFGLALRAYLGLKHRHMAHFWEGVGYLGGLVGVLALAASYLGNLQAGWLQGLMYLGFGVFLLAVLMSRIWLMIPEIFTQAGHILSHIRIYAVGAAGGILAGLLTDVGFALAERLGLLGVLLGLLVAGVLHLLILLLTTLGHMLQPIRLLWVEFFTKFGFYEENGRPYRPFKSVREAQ

[4] = molecular target: B1

For “c subunit of Thermus thermophilus V/A-ATPase, His3-tagged (from UniProt Q5SIT7 1-99) (natural protein)”, the stoichiometry N [1] was 12 and the stoichiometry N [2] was 12.

B1: binds [3].

B2: D subunit of Thermus thermophilus V/A-ATPase (natural protein, UniProt O87880 1-223, looked up)
chain: MSQVSPTRMNLLQRRGQLRLAQKGVDLLKKKRDALVAEFFGLVREAMEARKALDQAAKEAYAALLLAQAFDGPEVVAGAALGVPPLEGVEAEVENVWGSKVPRLKATFPDGALLSPVGTPAYTLEASRAFRRYAEALIRVANTETRLKKIGEEIKKTTRRVNALEQVVIPGIRAQIRFIQQVLEQREREDTFRLKRIKGKIEAREAEEEGGRPNPQVEIGAGL
B2: binds [4].
